Reference: patent US10441663B2, “Methods for treating cancer” (Bicycle Therapeutics Limited, priority 2016, dated 2019)
*1 amine or outer side, *2 acyl side, *3 side chain or, on linkers, in order; H or OH if unused. Where a SMILES comes first, the peptide text is derived from it. Bridges are numbered along the chain shown (N, C = ends). [ ]: non-standard residue; d: D form. The star is where a group is joined. X1 = COc1cc2cc(c1Cl)N(C)C(=O)C[C@H](OC(=O)[C@H](C)N(C)C(=O)CCSSC(C)CCC(=O)*)[C@]1(C)O[C@H]1[C@H](C)[C@@H]1C[C@@](O)(NC(=O)O1)[C@H](OC)/C=C/C=C(\C)C2; 1Nal = N[C@@H](Cc1cccc2ccccc12)C(=O)O; TBMB = c1c(C[*:1])cc(C[*:3])cc1C[*:2]; Tle = CC(C)(C)[C@H](N)C(=O)O; βAla = NCCC(=O)O; Sar = CNCC(=O)O

Tested on: EBC-1 xenograft
Test: Efficacy of BT1718 in EBC-1 xenograft model (Example 1)
Type: in vivo, Mus Musculus
Set-up: key to Best response at 10 mg/kg: CR complete response; PR partial response
Conditions: for Tumor Size (mm^3): Mean ± SEM
Description: The objective of this study was to evaluate the anti-tumor efficacy of BT1718 in EBC-1 xenograft model in female BALB/c nude mice.
The EBC-1 tumor cells were maintained in vitro as a monolayer culture in EMEM medium supplemented with 10% heat inactivated fetal bovine serum at 37° C. in an atmosphere of 5% CO2 in air. The tumor cells will be routinely subcultured twice weekly by trypsin-EDTA treatment. The cells growing in an exponential growth phase will be harvested and counted for tumor inoculation.
Each mouse was inoculated subcutaneously at the right flank with EBC-1 tumor cells (10×10^6) in 0.2 ml of PBS for tumor development. The animals were randomized and treatment was started when the average tumor volume reaches approximately 165 mm^3 for the efficacy study.
All the procedures related to animal handling, care and the treatment in the study were performed according to the guidelines of the Association for Assessment and Accreditation of Laboratory Animal Care (AAALAC). At the time of routine monitoring, the animals were daily checked for any effects of tumor growth and treatments on normal behavior such as mobility, food and water consumption (by looking only), body weight gain/loss (body weights were measured every day), eye/hair matting and any other abnormal effect as stated in the protocol. Death and observed clinical signs were recorded on the basis of the numbers of animals within each subset.
The major endpoint was to see if the tumor growth could be delayed or mice could be cured. Tumor size was measured three times weekly in two dimensions using a caliper, and the volume was expressed in mm^3 using the formula: V=0.5 a×b^2 where a and b are the long and short diameters of the tumor, respectively. The tumor size was then used for calculations of T/C value. The T/C value (in percent) is an indication of antitumor effectiveness; T and C are the mean volumes of the treated and control groups, respectively, on a given day.
TGI was calculated for each group using the formula: TGI (%)=[1−(Ti−T0)/(Vi−V0)]×100; Ti is the average tumor volume of a treatment group on a given day, T0 is the average tumor volume of the treatment group on the day of treatment start, Vi is the average tumor volume of the vehicle control group on the same day with Ti, and V0 is the average tumor volume of the vehicle group on the day of treatment start.
Summary statistics, including mean and the standard error of the mean (SEM), are provided for the tumor volume of each group at each time point.
Statistical analysis of difference in tumor volume among the groups was conducted on the data obtained at the best therapeutic time point after the final dose.
A one-way ANOVA was performed to compare tumor volume among groups, and when a significant F-statistics (a ratio of treatment variance to the error variance) was obtained, comparisons between groups were carried out with Games-Howell test. All data were analyzed using Prism. P<0.05 was considered to be statistically significant.

Structure (SMILES): COc1cc2cc(c1Cl)N(C)C(=O)C[C@H](OC(=O)[C@H](C)N(C)C(=O)CCSSC(C)CCC(=O)NCCC(=O)N(C)CC(=O)N(C)CC(=O)N(C)CC(=O)N(C)CC(=O)N(C)CC(=O)N(C)CC(=O)N(C)CC(=O)N(C)CC(=O)N(C)CC(=O)N(C)CC(=O)N[C@@H](C)C(=O)N[C@H]1CSCc3cc4cc(c3)CSC[C@H](NC(=O)[C@@H](C)NC(=O)[C@H](Cc3cccc5ccccc35)NC(=O)[C@H](CCC(=O)O)NC(=O)[C@H](CC(N)=O)NC(=O)[C@@H](C)NC1=O)C(=O)N[C@@H](CCC(=O)O)C(=O)N[C@@H](CC(=O)O)C(=O)N[C@@H](Cc1ccccc1)C(=O)N[C@@H](Cc1ccc(O)cc1)C(=O)N[C@@H](CC(=O)O)C(=O)N[C@@H](C(C)(C)C)C(=O)N[C@H](C(N)=O)CSC4)[C@]1(C)O[C@H]1[C@H](C)[C@@H]1C[C@@](O)(NC(=O)O1)[C@H](OC)/C=C/C=C(\C)C2 (some centres unmarked) [BT1718] ({X1-βAla}-[Sar][Sar][Sar][Sar][Sar][Sar][Sar][Sar][Sar][Sar]AC[dA]NE[1Nal][dA]CEDFYD[Tle]C-NH2; linker 12-18-25 via TBMB (inferred))
- Tumor Volume (4.5 mpk biw, day 21): 526 ± 95 mm^3
- Body Weight (9 mpk qw, day 0): 24.0 ± 0.4 g
- Body Weight (% Change) (9 mpk qw, day 0): 0.0%
- Tumor Volume (9 mpk qw, day 0): 163 ± 19 mm^3
- Body Weight (9 mpk qw, day 2): 23.2 ± 0.6 g
- Body Weight (% Change) (9 mpk qw, day 2): −3.4 ± 0.9%
- Tumor Volume (9 mpk qw, day 2): 182 ± 25 mm^3
- Body Weight (9 mpk qw, day 4): 23.8 ± 0.5 g
- Body Weight (% Change) (9 mpk qw, day 4): −0.7 ± 1.8%
- Tumor Volume (9 mpk qw, day 4): 200 ± 28 mm^3
- Body Weight (9 mpk qw, day 7): 24.7 ± 0.2 g
- Body Weight (% Change) (9 mpk qw, day 7): 2.8 ± 0.6%
- Tumor Volume (9 mpk qw, day 7): 202 ± 64 mm^3
- Body Weight (9 mpk qw, day 9): 23.8 ± 0.5 g
- Body Weight (% Change) (9 mpk qw, day 9): −1.1 ± 0.7%
- Tumor Volume (9 mpk qw, day 9): 187 ± 70 mm^3
- Body Weight (9 mpk qw, day 11): 24.7 ± 0.4 g
- Body Weight (% Change) (9 mpk qw, day 11): 2.8 ± 0.9%
- Tumor Volume (9 mpk qw, day 11): 164 ± 61 mm^3
- Body Weight (9 mpk qw, day 14): 24.9 ± 0.4 g
- Body Weight (% Change) (9 mpk qw, day 14): 3.7 ± 0.8%
- T/C (%) (9 mpk qw, day 14): 12%
- TGI (%) (9 mpk qw, day 14): 101%
- Tumor Volume (9 mpk qw, day 14): 154 ± 72 mm^3
- Tumor Size (mm^3) (9 mpk qw, day 14): 154 ± 72 mm^3
- Body Weight (9 mpk qw, day 16): 24.6 ± 0.2 g
- Body Weight (% Change) (9 mpk qw, day 16): 2.3 ± 0.6%
- Tumor Volume (9 mpk qw, day 16): 186 ± 83 mm^3
- Body Weight (9 mpk qw, day 18): 24.8 ± 0.2 g
- Body Weight (% Change) (9 mpk qw, day 18): 3.2 ± 0.8%
- Tumor Volume (9 mpk qw, day 18): 245 ± 119 mm^3
- Body Weight (9 mpk qw, day 21): 24.8 ± 0.2 g
- Body Weight (% Change) (9 mpk qw, day 21): 3.1 ± 1.0%
- Tumor Volume (9 mpk qw, day 21): 320 ± 153 mm^3
- Body Weight (10 mpk tiw, day 0): 24.2 ± 0.4 g
- Body Weight (% Change) (10 mpk tiw, day 0): 0.0%
- Tumor Volume (10 mpk tiw, day 0): 167 ± 11 mm^3
- Body Weight (10 mpk tiw, day 2): 23.2 ± 0.6 g
- Body Weight (% Change) (10 mpk tiw, day 2): −4.0 ± 1.3%
- Tumor Volume (10 mpk tiw, day 2): 216 ± 21 mm^3
- Body Weight (10 mpk tiw, day 4): 23.7 ± 0.5 g
- Body Weight (% Change) (10 mpk tiw, day 4): −2.1 ± 0.9%
- Tumor Volume (10 mpk tiw, day 4): 205 ± 24 mm^3
- Body Weight (10 mpk tiw, day 7): 22.7 ± 0.6 g
- Body Weight (% Change) (10 mpk tiw, day 7): −6.2 ± 0.8%
- Tumor Volume (10 mpk tiw, day 7): 114 ± 10 mm^3
- Body Weight (10 mpk tiw, day 9): 23.1 ± 0.4 g
- Body Weight (% Change) (10 mpk tiw, day 9): −4.4 ± 0.3%
- Tumor Volume (10 mpk tiw, day 9): 45 ± 4 mm^3
- Body Weight (10 mpk tiw, day 11): 22.9 ± 0.6 g
- Body Weight (% Change) (10 mpk tiw, day 11): −5.2 ± 1.1%
- Tumor Volume (10 mpk tiw, day 11): 16 ± 3 mm^3
- Body Weight (10 mpk tiw, day 14): 23.8 ± 0.5 g
- Body Weight (% Change) (10 mpk tiw, day 14): −1.6%
- T/C (%) (10 mpk tiw, day 14): 0%
- TGI (%) (10 mpk tiw, day 14): 115%
- Tumor Volume (10 mpk tiw, day 14): 0 ± 0 mm^3
- Tumor Size (mm^3) (10 mpk tiw, day 14): 0 ± 0 mm^3
- Body Weight (15 mpk biw, day 0): 23.7 ± 0.3 g
- Body Weight (% Change) (15 mpk biw, day 0): 0.0%
- Tumor Volume (15 mpk biw, day 0): 161 ± 12 mm^3
- Body Weight (15 mpk biw, day 2): 22.7 ± 0.4 g
- Body Weight (% Change) (15 mpk biw, day 2): −4.2 ± 0.6%
- Tumor Volume (15 mpk biw, day 2): 173 ± 11 mm^3
- Body Weight (15 mpk biw, day 4): 22.6 ± 0.3 g
- Body Weight (% Change) (15 mpk biw, day 4): −4.5 ± 0.3%
- Tumor Volume (15 mpk biw, day 4): 136 ± 10 mm^3
- Body Weight (15 mpk biw, day 7): 22.8 ± 0.4 g
- Body Weight (% Change) (15 mpk biw, day 7): −3.7 ± 2.5%
- Tumor Volume (15 mpk biw, day 7): 79 ± 1 mm^3
- Body Weight (15 mpk biw, day 9): 22.7 ± 0.2 g
- Body Weight (% Change) (15 mpk biw, day 9): −4.3 ± 1.7%
- Tumor Volume (15 mpk biw, day 9): 36 ± 2 mm^3
- Body Weight (15 mpk biw, day 11): 23.4 ± 0.3 g
- Body Weight (% Change) (15 mpk biw, day 11): −1.2 ± 0.3%
- Tumor Volume (15 mpk biw, day 11): 12 ± 0 mm^3
- Body Weight (15 mpk biw, day 14): 23.7 ± 0.5 g
- Body Weight (% Change) (15 mpk biw, day 14): 0.2 ± 1.4%
- T/C (%) (15 mpk biw, day 14): 0%
- TGI (%) (15 mpk biw, day 14): 115%
- Tumor Volume (15 mpk biw, day 14): 0 ± 0 mm^3
- Tumor Size (mm^3) (15 mpk biw, day 14): 0 ± 0 mm^3
- Body Weight (30 mpk qw, day 0): 24.6 ± 0.6 g
- Body Weight (% Change) (30 mpk qw, day 0): 0.0%
- Tumor Volume (30 mpk qw, day 0): 166 ± 10 mm^3
- Body Weight (30 mpk qw, day 2): 20.9 ± 0.3 g
- Body Weight (% Change) (30 mpk qw, day 2): −14.9 ± 2.2%
- Tumor Volume (30 mpk qw, day 2): 166 ± 22 mm^3
- Body Weight (30 mpk qw, day 4): 21.9 ± 1.0 g
- Body Weight (% Change) (30 mpk qw, day 4): −10.8 ± 4.3%
- Tumor Volume (30 mpk qw, day 4): 128 ± 6 mm^3
- Body Weight (30 mpk qw, day 7): 23.1 ± 1.0 g
- Body Weight (% Change) (30 mpk qw, day 7): −6.2 ± 3.5%
- Tumor Volume (30 mpk qw, day 7): 89 ± 4 mm^3
- Body Weight (30 mpk qw, day 9): 20.8 ± 1.0 g
- Body Weight (% Change) (30 mpk qw, day 9): −15.5 ± 3.4%
- Tumor Volume (30 mpk qw, day 9): 47 ± 3 mm^3
- Body Weight (30 mpk qw, day 11): 22.1 ± 0.9 g
- Body Weight (% Change) (30 mpk qw, day 11): −10.3 ± 3.3%
- Tumor Volume (30 mpk qw, day 11): 18 ± 2 mm^3
- Body Weight (30 mpk qw, day 14): 24.0 ± 1.0 g
- Body Weight (% Change) (30 mpk qw, day 14): −2.4 ± 3.2%
- T/C (%) (30 mpk qw, day 14): 0%
- TGI (%) (30 mpk qw, day 14): 115%
- Tumor Volume (30 mpk qw, day 14): 0 ± 0 mm^3
- Tumor Size (mm^3) (30 mpk qw, day 14): 0 ± 0 mm^3
- Best response at 10 mg/kg (EBC-1, 10 mg/kg): CR
- Minimally Effective Dose IV BIW (EBC-1, dose leading to tumor-stasis): <10 mg/kg
- body weight effect (other groups (all except 30 mg/kg qw)): maintained their bodyweight well
- treatment effect (same total dose, schedules from daily to a single weekly dose): Effective treatment
